± gives the uncertainty stated by the source.
B1: DnaJ homolog subfamily C member 2, residues 451 to 503; numbered along this chain, Q99543 (parent)
chain: SKNWSEDDLQLLIKAVNLFPAGTNSRWEVIANYMNIHSSSGVKRTAKDVIGKA

Variants of: B1
Assay: abundance fitness (aPCA) (normalised: wild type 0, dead -1); higher = more abundant; growth selection in yeast, the domain comes from the species named
Conditions: Homo sapiens

Abundance fitness: each site, then its substitutions
A53: S -0.001 ± 0.14, Q -0.081 ± 0.22, P -0.775 ± 0.46, Y -0.629 ± 0.45, L -0.634 ± 0.24, V -0.035 ± 0.29, R -0.498 ± 0.32, T -0.254 ± 0.19, H -0.233 ± 0.25
